Target: Escherichia coli MnmA, as-purified (aerobically purified, tag removed) (Escherichia coli) (UniProt P25745)
Assay: SEC-MALS

In the case of “Escherichia coli MnmA, as-purified (aerobically purified, tag removed) (from UniProt P25745 1-368) (enzyme)”, the stoichiometry N is reported as 2.

From paper PMC8053098
